In general, Kd refers to the equilibrium constant for the complex coming apart.

In assay [1] the target is T1, SNX1-BT*:SNX5-BT* heterodimer (human, UniProt Q13596 1-522; Q9Y5X3 1-404). Put plainly: ITC; representative single experiment. (In general: In ITC the heat of successive injections is recorded.)
Assay [2] has as its target T2, SNX1-SAH^3A:SNX5-SAH^3A heterodimer (human, UniProt Q13596 1-522; Q9Y5X3 1-404). Put plainly: ITC; representative single experiment.
Assay [3] concerns the target T1, SNX1-BT*:SNX5-BT* heterodimer. Put plainly: ITC.
The target in assay [4] is T2, SNX1-SAH^3A:SNX5-SAH^3A heterodimer. Put plainly: ITC.

T1 sequence (Q13596 whole entry, chain 1 of 2): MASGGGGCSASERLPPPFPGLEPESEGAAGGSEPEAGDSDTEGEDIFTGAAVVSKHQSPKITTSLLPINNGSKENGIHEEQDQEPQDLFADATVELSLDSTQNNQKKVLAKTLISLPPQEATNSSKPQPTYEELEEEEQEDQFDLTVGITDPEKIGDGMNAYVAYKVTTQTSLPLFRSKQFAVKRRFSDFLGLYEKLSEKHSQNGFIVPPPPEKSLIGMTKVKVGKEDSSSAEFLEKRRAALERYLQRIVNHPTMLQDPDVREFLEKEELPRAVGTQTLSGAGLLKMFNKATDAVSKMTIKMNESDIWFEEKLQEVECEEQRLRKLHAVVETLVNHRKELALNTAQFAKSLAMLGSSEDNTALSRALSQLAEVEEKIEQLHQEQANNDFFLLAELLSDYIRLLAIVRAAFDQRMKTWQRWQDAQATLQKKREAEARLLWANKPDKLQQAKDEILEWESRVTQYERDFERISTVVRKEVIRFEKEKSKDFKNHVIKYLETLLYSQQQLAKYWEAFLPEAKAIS
T1 sequence (Q9Y5X3 whole entry, chain 2 of 2): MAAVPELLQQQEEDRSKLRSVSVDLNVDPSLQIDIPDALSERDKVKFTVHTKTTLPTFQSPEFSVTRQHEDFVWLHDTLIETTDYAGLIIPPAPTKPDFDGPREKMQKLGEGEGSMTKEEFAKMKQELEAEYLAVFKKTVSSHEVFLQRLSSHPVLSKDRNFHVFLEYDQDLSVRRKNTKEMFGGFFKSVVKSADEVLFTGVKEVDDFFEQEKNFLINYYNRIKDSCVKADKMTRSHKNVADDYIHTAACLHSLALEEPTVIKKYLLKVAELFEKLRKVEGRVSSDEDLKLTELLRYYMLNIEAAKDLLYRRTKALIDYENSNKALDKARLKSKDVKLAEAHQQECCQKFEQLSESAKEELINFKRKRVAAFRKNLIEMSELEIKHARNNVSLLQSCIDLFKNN
T2 sequence (Q13596 whole entry, chain 1 of 2): as the sequence (Q13596 whole entry, chain 1 of 2) above
T2 sequence (Q9Y5X3 whole entry, chain 2 of 2): as the sequence (Q9Y5X3 whole entry, chain 2 of 2) above

For the molecule SNVSYKYSKVNKEEETDENETEWLMEEIQ, the Kd is 9.96 µM in assay [1], 4.64 µM in assay [2], 10.4 µM in assay [3] and 5.06 µM in assay [4].

(Values after PMC10352136 (2023).)
